Measurements published in patent US20230057263A1.

Biological target: human CD3 epsilon (CD3ε) (human) (UniProt P07766)
Test: flow cytometry on human T cells

EC50 (read off the curve): 0.03 nM
Substance: OKT3 (antibody)
